# According to US10413564B2, “Compositions and methods for combating drug-resistant cancers” (NATIONAL YANG-MING UNIVERSITY, priority 2016, dated 2019):
# “Also recorded” adds a separate entry of the source. Where two headings read alike, the source gives them in different places.
# Key:
# [1] = test system: OECM1-Ctx^R or primary HNSCC cells; assay: Sensitization to cetuximab treatment by pathway inhibitors
# Experimental: (§2) A total of 5×10^4 cells per well were seeded in a 96-well plate with triplicate and incubated for 24 h and then treated with different concentrations of indicated drugs. After 24 h treatment, the medium was removed. The MTT assay solution was added to each well, and the plate was incubated for 1 h at 37° C. After incubation, the solution was carefully discarded and dimethyl sulphoxide was added to dissolve newly formed mitochondrial MTT crystals. Finally, the plate was read using a microplate reader at 540 nm. Based on the data of cell viability assay, IC50-value calculation was performed by Sigmaplot 10.0 (Systat Software Inc., San Jose, Calif.).
# [2] = test system: OECM1-Ctx^R cells; assay: Growth inhibition of the cetuximab-resistant subline OECM1-Ctx^R; assay type: cell-based, human
# Experimental: as §2
# [3] = test system: FaDu-Ctx^R cells; assay: Growth inhibition of the cetuximab-resistant subline FaDu-Ctx^R; assay type: cell-based, human
# Experimental: A cetuximab-resistant HNSCC subline (named FaDu-Ctx^R) was established by in vivo selection. 1×10^5 wild-type FaDu cells per mouse were inoculated into the subcutaneous area of Balb/c nude mice (n=4). Two mice were treated with PBS and two were treated with cetuxmab once a week. […] After 10 weeks, the xenograpfted tumor was harvested for primary culture. […] The resistance of FaDu-Cxt^R was confirmed in vivo and in vitro. Subsequently, these two sublines were inoculated into nude mice again and treated with cetuximab.
# After 24 h treatment, the medium was removed.
# [4] = test system: NF-κB; assay: NF-κB luciferase reporter assay; assay type: cell-based, human; settings: cetuximab-resistant cells
# Text: Activation of NF-κB in cetuximab-resistant cells was evident by an increased expression of nuclear p65 and p52 proteins and an enhanced NF-κB activity. Knockdown of LTB reduced nuclear p65 and p52, and suppression of LTB by either shRNA or a LTβ neutralizing antibody reduced NF-κB reporter activity.
# The reporter constructs (PGL4.2-LTB-WT/PGL4.2-LTB-MUT/pGL4.23 promoter) were co-transfected into HEK-293T, FaDu or OECM1/OECM1-Ctx^R cells with different expression/control vector(s) as indicated in each experiment. A plasmid expressing the bacterial β-galactosidase gene (pCMV-βgal) was co-transfected in each experiment as an internal control for transfection efficiency. Cells were harvested after 48 hours of transfection and luciferase activities were assayed. The relative promoter activities were expressed as the fold-change in luciferase activity after normalization to β-galactosidase activity.
# [5] = target: EGFR-ECD (Homo sapiens, UniProt P00533); assay: Peptide in vitro binding assay with EGFR-ECD; settings: in vitro binding assay of peptides P1-P10
# Experimental: The purified full-length EGFR and EGFR-ECD was incubated with peptides containing sequences of different β-sheets of LTβ.
# P1-P10 (SEQ ID NOs: 2-10) were tested for in vitro binding assay.
# [6] = target: EGFR-ICD (Homo sapiens, UniProt P00533); assay: In vitro binding assay, EGFR-ICD and LTβ interaction; settings: LTβ β-sheet peptides
# Text: (§1) Since LTβ also induces EGFR-ICD phosphorylation in vitro, the applicant also investigated whether interception of EGFR-ICD and LTβ interaction could attenuate EGFR phosphorylation.
# [7] = target: T1, EGF-EGFR binding (Homo sapiens, UniProt P00533); assay: EGF binding (flow cytometry); assay type: cell-based; settings: OECM1-Ctx^R
# T1 construct: examined the effect of treating the peptides containing different β-sheets of LTβ on OECM1-Ctx^R; endogenous in cells; host or cells: OECM1-CtxR (cetuximab-resistant subline of OECM1); parental OECM1 for comparison
# Experimental: To analyze EGF binding, the cells were resuspended, incubated in a PE-conjugated anti-EGF antibody and evaluated using a Cytomics FC 500 instrument (Beckman-Coulter Inc., Fullerton, Calif.). The EGF-bound populations were defined compared with the IgG control group.
# [8] = test system: OECM1-Ctx^R cells; assay: Clonogenecity assay, sensitization of OECM1-Ctx^R to cetuximab by peptides; assay type: cell-based, human; settings: OECM1-Ctx^R / cetuximab-resistant cells
# Experimental: The colonies were stained with crystal violet and counted if the size was great than 0.5 mm.
# 5,000 cells/well were seeded into 24-well plates. After 10 days of culturing, cells were washed by cold PBS twice and fixed by 4% paraformaldehyde for 1 hour. Cells then were stained by 0.005% crystal violet at 4° C. overnight. Colonies with a diameter larger than 0.5 mm were counted.
# [9] = target: T2, EGFR (Homo sapiens, UniProt P00533); assay: In vitro kinase assay of EGFR phosphorylation; assay type: biochemical; parameters: Since LTβ also induces EGFR-ICD phosphorylation in vitro
# Text: as §1
# [10] = target: T2, EGFR; assay: EGFR Y1068 phosphorylation in OECM1-Ctx^R treated with LTβ β-sheet peptides; assay type: cell-based; parameters: examined the effect of treating the peptides containing different β-sheets of LTβ on OECM1-Ctx^R; endogenous in cells; host or cells: OECM1-CtxR (cetuximab-resistant subline of OECM1); parental OECM1 for comparison
# [11] = target: T2, EGFR; assay: EGFR dimerization in OECM1-Ctx^R; assay type: cell-based; parameters: examined the effect of treating the peptides containing different β-sheets of LTβ on OECM1-Ctx^R; endogenous in cells; host or cells: OECM1-CtxR (cetuximab-resistant subline of OECM1); parental OECM1 for comparison
# [12] = test system: colorectal tumors harboring a KRAS mutation; settings: patients, FDA approval background; cited from earlier work
compound,measurement,setting,value
CC(C)C[C@H](NC(=O)[C@H](Cc1ccccc1)NC(=O)c1cnccn1)B(O)O [bortezomib],sensitization to cetuximab treatment by inhibition of NF-κB activity,[1],sensitized
CCGGCGAGAGGGTGTACGTCAACATCTCGAGATGTTGACGTACACCCTCTCGTTTTT G (CCGGCGAGAGGGTGTACGTCAACATCTCGAGATGTTGACGTACACCCTCTCGTTTTTG; expressed or natural sequence) [shRNA],cetuximab resistance after knockdown of LTβ,[2],reverses cetuximab resistance
same,cetuximab resistance after knockdown of LTβ,[3],reverses cetuximab resistance
same,NF-κB reporter activity,[4],reduced
ERVYVNISH (beta-sheet of LTbeta) [P9],interaction with EGFR-ECD,[5],interact
same,interaction in the in vitro binding assay (EGFR-ICD context),[6],interacted with LTβ
same,EGF-EGFR binding,[7],reduced
same,sensitization to cetuximab treatment by peptide,[8]; listed as 9th β-sheet,capable for sensitizing; also recorded: sensitized
same,"EGFR phosphorylation, in vitro kinase assay",[9],suppresses EGFR phosphorylation most significantly
same,EGFR Y1068 phosphorylation,[10]; listed as 9th β-sheet,suppressed; also recorded: more prominent effect
same,EGFR dimerization,[11],inhibits
QDGLYYLYCLVGYR (beta-sheet of LTbeta) [P5],interaction with EGFR-ECD,[5],interact
same,interaction in the in vitro binding assay (EGFR-ICD context),[6],interacted with LTβ
same,sensitization to cetuximab treatment by peptide,[8]; listed as 5th β-sheet,capable for sensitizing; also recorded: sensitized
same,"EGFR phosphorylation, in vitro kinase assay",[9],suppresses EGFR phosphorylation most significantly
same,EGFR Y1068 phosphorylation,[10],suppressed
WYTSVGFGGLVQLR (beta-sheet of LTbeta) [P8],interaction with EGFR-ECD,[5],interact
same,interaction in the in vitro binding assay (EGFR-ICD context),[6],interacted with LTβ
panitumumab,effect in colorectal tumors harboring a KRAS mutation,[12],little or no effect
